Results reported in article PMC3558936 (Neuron, 2013).

Target: the molecule itself
Assay: FRET or BRET

B1: Ciona intestinalis Hv1 (Ci-Hv1) D171A/S242C channel (natural protein, UniProt Q1JV40 1-342, looked up)
chain: MEGDNCNKSRHKSHNMINPNYASVRCTQPLPSVIQLRSRNKMIGITEDPSSDSEPVSSNQPLLLTNLSYEVHTFNDNNNHERPAPQEQSTQNTMISMQSEQKSDRFTASNLGMFQYMKFEIGEDGDDHEEEAILTNREKLRHILHSKPIHVAIIVLVVLDSFLVVGELLIALKVIIVPHGNPAPEILHGFSLSILSIFMVEIALKIIADHRHFIHHKVEVLDAVVVVISFGVDIALIFVGECEALAAIGLLVILRLWRVFRIINGIIVTVKTKADDRVHEIKKKNSELELQIHNLEEKLSQKEQDMSRLHEILRCNNIDIPPTVPLTTSVQIHSTTTASADV
modifications: Alexa488-maleimide (donor) or TMR-MTS (acceptor) on the introduced cysteine 242
stoichiometry N: 2
